The source of these data is the supplement of paper PMC10567573.

The labels stand for the following.
B1: TMEM106C (parent)
chain: YVTTNVSLIPPRSEQLVNFTGKAE
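Further: lentivirally expressed fusions sorted by FACS into six bins by GFP to DsRed ratio, PSI derived from sequencing read proportions per bin multiplied by bin number.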

In this series the parent is B1. In words: protein stability index of a GFP-peptide fusion (GPS, HEK-293T) (PSI 1-6); higher = more stable. The settings on record: c terminus: a fixed tail appended.
On to YVTTNVSAIPPRSEQLVNFTGKAE [L8A], for which the protein stability index was 2.21.
The result for YVTTNVSPIPPRSEQLVNFTGKAE [L8P] reads 1.75.
With YVTTNVSMIPPRSEQLVNFTGKAE [L8M], the protein stability index turned out to be 2.5.
In the case of YVTTNVSWIPPRSEQLVNFTGKAE [L8W], the protein stability index was determined as 2.1.
In the case of YVTTNVSVIPPRSEQLVNFTGKAE [L8V], the protein stability index came to 1.67.
With YVTTNVSKIPPRSEQLVNFTGKAE [L8K] the figure was 1.71; with YVTTNVSDIPPRSEQLVNFTGKAE [L8D], 2.44.
With YVTTNVSYIPPRSEQLVNFTGKAE [L8Y] the figure was 1.86; with YVTTNVSIIPPRSEQLVNFTGKAE [L8I], 2.04.
As for YVTTNVSNIPPRSEQLVNFTGKAE [L8N], the protein stability index came to 1.98.
The result for YVTTNVSQIPPRSEQLVNFTGKAE [L8Q] reads 1.53; that for YVTTNVSHIPPRSEQLVNFTGKAE [L8H], 2.16; that for YVTTNVSEIPPRSEQLVNFTGKAE [L8E], 2.61.
With YVTTNVSCIPPRSEQLVNFTGKAE [L8C] the figure was 1.66.
With YVTTNVSRIPPRSEQLVNFTGKAE [L8R] the figure was 1.6.
YVTTNVSFIPPRSEQLVNFTGKAE [L8F]: the protein stability index was found to be 2.54.
With YVTTNVSTIPPRSEQLVNFTGKAE [L8T] the figure was 1.95; with YVTTNVSSIPPRSEQLVNFTGKAE [L8S], 2.26.
In the case of YVTTNVSLWPPRSEQLVNFTGKAE [I9W], the protein stability index is 1.75.
With YVTTNVSLGPPRSEQLVNFTGKAE [I9G], the protein stability index was found to be 1.6.
As for YVTTNVSLVPPRSEQLVNFTGKAE [I9V], the protein stability index stood at 1.51.
For YVTTNVSLHPPRSEQLVNFTGKAE [I9H], the protein stability index was found to be 2.46.
On to YVTTNVSLTPPRSEQLVNFTGKAE [I9T], for which the protein stability index turned out to be 2.43.
With YVTTNVSLSPPRSEQLVNFTGKAE [I9S] the figure was 1.71; with YVTTNVSLKPPRSEQLVNFTGKAE [I9K], 2.02; with YVTTNVSLPPPRSEQLVNFTGKAE [I9P], 1.81.
As for YVTTNVSLQPPRSEQLVNFTGKAE [I9Q], the protein stability index is 1.61.
Regarding YVTTNVSLFPPRSEQLVNFTGKAE [I9F], the protein stability index is 1.7.
Turning to YVTTNVSLAPPRSEQLVNFTGKAE [I9A], the protein stability index turned out to be 2.94.
The result for YVTTNVSLMPPRSEQLVNFTGKAE [I9M] reads 1.86; that for YVTTNVSLEPPRSEQLVNFTGKAE [I9E], 2.25.
As for YVTTNVSLDPPRSEQLVNFTGKAE [I9D], the protein stability index stood at 2.24.
With YVTTNVSLLPPRSEQLVNFTGKAE [I9L] the figure was 1.7; with YVTTNVSLNPPRSEQLVNFTGKAE [I9N], 2.17.
Turning to YVTTNVSLRPPRSEQLVNFTGKAE [I9R], the protein stability index was found to be 1.99.
Regarding YVTTNVSLYPPRSEQLVNFTGKAE [I9Y], the protein stability index came to 2.32.
With YVTTNVSLCPPRSEQLVNFTGKAE [I9C] the figure was 1.2; with YVTTNVVLIPPRSEQLVNFTGKAE [S7V], 1.79; with YVTTNVALIPPRSEQLVNFTGKAE [S7A], 1.31.
The result for YVTTNVFLIPPRSEQLVNFTGKAE [S7F] reads 1.83; that for YVTTNVRLIPPRSEQLVNFTGKAE [S7R], 2.13; that for YVTTNVELIPPRSEQLVNFTGKAE [S7E], 2.13.
As for YVTTNVPLIPPRSEQLVNFTGKAE [S7P], the protein stability index stood at 2.81.
On to YVTTNVKLIPPRSEQLVNFTGKAE [S7K], for which the protein stability index worked out at 1.36.
For YVTTNVQLIPPRSEQLVNFTGKAE [S7Q], the protein stability index is 2.27.
With YVTTNVCLIPPRSEQLVNFTGKAE [S7C], the protein stability index was 2.56.
The result for YVTTNVNLIPPRSEQLVNFTGKAE [S7N] reads 2.18.
In the case of YVTTNVTLIPPRSEQLVNFTGKAE [S7T], the protein stability index is 2.64.
On to YVTTNVILIPPRSEQLVNFTGKAE [S7I], for which the protein stability index amounted to 3.34.
With YVTTNVYLIPPRSEQLVNFTGKAE [S7Y], the protein stability index amounted to 3.23.
With YVTTNVGLIPPRSEQLVNFTGKAE [S7G] the figure was 2.36.
For YVTTNVHLIPPRSEQLVNFTGKAE [S7H], the protein stability index was 2.29.
Take YVTTNVWLIPPRSEQLVNFTGKAE [S7W]: the protein stability index came to 1.54.
Consider YVTTNVMLIPPRSEQLVNFTGKAE [S7M], for which the protein stability index is 1.57.
With YVTTNVLLIPPRSEQLVNFTGKAE [S7L] the figure was 2.45; with YVTTNVDLIPPRSEQLVNFTGKAE [S7D], 2.37; with YVTTNVSLILPRSEQLVNFTGKAE [P10L], 1.86.
For the variant YVTTNVSLIVPRSEQLVNFTGKAE [P10V], the protein stability index was determined as 3.38.
Turning to YVTTNVSLIAPRSEQLVNFTGKAE [P10A], the protein stability index was found to be 3.06.
With YVTTNVSLIMPRSEQLVNFTGKAE [P10M] the figure was 2.82; with YVTTNVSLISPRSEQLVNFTGKAE [P10S], 1.82; with YVTTNVSLICPRSEQLVNFTGKAE [P10C], 2.58.
The result for YVTTNVSLIFPRSEQLVNFTGKAE [P10F] reads 2.74; that for YVTTNVSLIYPRSEQLVNFTGKAE [P10Y], 2.88.
For YVTTNVSLIIPRSEQLVNFTGKAE [P10I], the protein stability index was 2.65.
With YVTTNVSLINPRSEQLVNFTGKAE [P10N], the protein stability index stood at 2.78.
The result for YVTTNVSLIGPRSEQLVNFTGKAE [P10G] reads 3.2.
As for YVTTNVSLIRPRSEQLVNFTGKAE [P10R], the protein stability index amounted to 3.
Turning to YVTTNVSLIWPRSEQLVNFTGKAE [P10W], the protein stability index was determined as 2.56.
Take YVTTNVSLITPRSEQLVNFTGKAE [P10T]: the protein stability index worked out at 2.42.
For the variant YVTTNVSLIKPRSEQLVNFTGKAE [P10K], the protein stability index turned out to be 2.45.
The result for YVTTNVSLIEPRSEQLVNFTGKAE [P10E] reads 1.66; that for YVTTNVSLIHPRSEQLVNFTGKAE [P10H], 1.91.
YVTTNVSLIQPRSEQLVNFTGKAE [P10Q]: the protein stability index came out at 2.26.
On to YVTTNVSLIDPRSEQLVNFTGKAE [P10D], for which the protein stability index is 1.46.
Turning to YVTTNVSLIPPWSEQLVNFTGKAE [R12W], the protein stability index stood at 2.19.
YVTTNVSLIPPLSEQLVNFTGKAE [R12L]: the protein stability index worked out at 1.48.
The result for YVTTNVSLIPPGSEQLVNFTGKAE [R12G] reads 2.49; that for YVTTNVSLIPPCSEQLVNFTGKAE [R12C], 1.86.
With YVTTNVSLIPPSSEQLVNFTGKAE [R12S] the figure was 2.23; with YVTTNVSLIPPDSEQLVNFTGKAE [R12D], 1.92; with YVTTNVSLIPPFSEQLVNFTGKAE [R12F], 2.75.
In the case of YVTTNVSLIPPNSEQLVNFTGKAE [R12N], the protein stability index amounted to 1.83.
YVTTNVSLIPPVSEQLVNFTGKAE [R12V]: the protein stability index is 2.08.
Consider YVTTNVSLIPPTSEQLVNFTGKAE [R12T], for which the protein stability index was determined as 2.09.
With YVTTNVSLIPPYSEQLVNFTGKAE [R12Y] the figure was 2.39.
YVTTNVSLIPPKSEQLVNFTGKAE [R12K]: the protein stability index was 1.9.
The result for YVTTNVSLIPPMSEQLVNFTGKAE [R12M] reads 2.14.
For the variant YVTTNVSLIPPQSEQLVNFTGKAE [R12Q], the protein stability index amounted to 2.1.
Consider YVTTNVSLIPPPSEQLVNFTGKAE [R12P], for which the protein stability index was 1.86.
With YVTTNVSLIPPISEQLVNFTGKAE [R12I] the figure was 1.78; with YVTTNVSLIPPASEQLVNFTGKAE [R12A], 2.85; with YVTTNVSLIPPESEQLVNFTGKAE [R12E], 1.9.
The result for YVTTNVSLIPPHSEQLVNFTGKAE [R12H] reads 1.85.
